Molecular target: the molecule itself
Experiment: SEC

B1: 3′-5′ exonuclease domain of human EXD2 (residues 76−295, EXD2-exo) (domain or fragment, UniProt Q9NVH0 76-295, looked up)
chain: KAKVVTVSQEAEWDQIEPLLRSELEDFPVLGIDCEWVNLEGKASPLSLLQMASPSGLCVLVRLPKLICGGKTLPRTLLDILADGTILKVGVGCSEDASKLLQDYGLVVRGCLDLRYLAMRQRNNLLCNGLSLKSLAETVLNFPLDKSLLLRCSNWDAETLTEDQVIYAARDAQISVALFLHLLGYPFSRNSPGEKNDDHSSWRKVLEKCQGVVDIPFRSK
B1 was tested, and the “stoichiometry N” value was 2.

From publication PMC6648332 (Nucleic Acids Research, 2019)
